Sequences and labels used below:
B1: Nkd1-BirA* [murine] / DVL2 (endogenous) [human (endogenous in Flp-In-T-REx-293)] (parent)
chain 1: MGKLHSKPAAVCKRRESPEGDSFAVSAAWARKGIEEWIGRQRCPGSVSGPRQLRLAGTVGRGTRELVGDTSREALGEEDEDDFPLEVALPPEKIDSLGSGDEKRMERLSEPGQASKKQLKFEELQCDVSVEEDSRQEWTFTLYDFDNNGKVTREDITSLLHTIYEVVDSSVNHSPTSSKTLRVKLTVAPDGSQSKRSVLFNHTDLQSTRPRADTKPAEELRGWEKKQRAPLRFQGDSHLEQPDCYHHCVDENIERRNHYLDLAGIENYTSQFGPGSPSVAQKSELPPRISNPTRSRSHEPEAAHIPHRRPQGVDPGSFHLLDTPFAKASELQQRLRGTQDGSKHFVRSPKAQGKNMGMGHGARGARSKPPLVPTTHTVSPSAHLATSPALLPTLAPLGHKKHKHRAKESQASCRGLQGPLAAGGSTVMGREQVRELPAVVVYESQAGQAVQRHEHHHHHEHHHHYHHFYQP
chain 2: MAGSSTGGGGVGETKVIYHLDEEETPYLVKIPVPAERITLGDFKSVLQRPAGAKYFFKSMDQDFGVVKEEISDDNARLPCFNGRVVSWLVSSDNPQPEMAPPVHEPRAELAPPAPPLPPLPPERTSGIGDSRPPSFHPNVSSSHENLEPETETESVVSLRRERPRRRDSSEHGAGGHRTGGPSRLERHLAGYESSSTLMTSELESTSLGDSDEEDTMSRFSSSTEQSSASRLLKRHRRRRKQRPPRLERTSSFSSVTDSTMSLNIITVTLNMEKYNFLGISIVGQSNERGDGGIYIGSIMKGGAVAADGRIEPGDMLLQVNDMNFENMSNDDAVRVLRDIVHKPGPIVLTVAKCWDPSPQAYFTLPRNEPIQPIDPAAWVSHSAALTGTFPAYPGSSSMSTITSGSSLPDGCEGRGLSVHTDMASVTKAMAAPESGLEVRDRMWLKITIPNAFLGSDVVDWLYHHVEGFPERREARKYASGLLKAGLIRHTVNKITFSEQCYYVFGDLSGGCESYLVNLSLNDNDGSSGASDQDTLAPLPGATPWPLLPTFSYQYPAPHPYSPQPPPYHELSSYTYGGGSASSQHSEGSRSSGSTRSDGGAGRTGRPEERAPESKSGSGSESEPSSRGGSLRRGGEASGTSDGGPPPSRGSTGGAPNLRAHPGLHPYGPPPGMALPYNPMMVVMMPPPPPPVPPAVQPPGAPPVRDLGSVPPELTASRQSFHMAMGNPSEFFVDVM
B2: Nkd1-BirA* [murine] / DVL3 [human (endogenous in Flp-In-T-REx-293)] (parent)
chain 1: B1 chain 1
chain 2: MGETKIIYHLDGQETPYLVKLPLPAERVTLADFKGVLQRPSYKFFFKSMDDDFGVVKEEISDDNAKLPCFNGRVVSWLVSAEGSHPDPAPFCADNPSELPPPMERTGGIGDSRPPSFHPHAGGGSQENLDNDTETDSLVSAQRERPRRRDGPEHATRLNGTAKGERRREPGGYDSSSTLMSSELETTSFFDSDEDDSTSRFSSSTEQSSASRLMRRHKRRRRKQKVSRIERSSSFSSITDSTMSLNIITVTLNMEKYNFLGISIVGQSNERGDGGIYIGSIMKGGAVAADGRIEPGDMLLQVNEINFENMSNDDAVRVLREIVHKPGPITLTVAKCWDPSPRGCFTLPRSEPIRPIDPAAWVSHTAAMTGTFPAYGMSPSLSTITSTSSSITSSIPDTERLDDFHLSIHSDMAAIVKAMASPESGLEVRDRMWLKITIPNAFIGSDVVDWLYHNVEGFTDRREARKYASNLLKAGFIRHTVNKITFSEQCYYIFGDLCGNMANLSLHDHDGSSGASDQDTLAPLPHPGAAPWPMAFPYQYPPPPHPYNPHPGFPELGYSYGGGSASSQHSEGSRSSGSNRSGSDRRKEKDPKAGDSKSGGSGSESDHTTRSSLRGPRERAPSERSGPAASEHSHRSHHSLASSLRSHHTHPSYGPPGVPPLYGPPMLMMPPPPAAMGPPGAPPGRDLASVPPELTASRQSFRMAMGNPSEFFVDVM
B3: Nkd1-BirA* [murine] / DVL1 [human (endogenous in Flp-In-T-REx-293)] (parent)
chain 1: B1 chain 1
chain 2: MAETKIIYHMDEEETPYLVKLPVAPERVTLADFKNVLSNRPVHAYKFFFKSMDQDFGVVKEEIFDDNAKLPCFNGRVVSWLVLAEGAHSDAGSQGTDSHTDLPPPLERTGGIGDSRPPSFHPNVASSRDGMDNETGTESMVSHRRERARRRNREEAARTNGHPRGDRRRDVGLPPDSASTALSSELESSSFVDSDEDGSTSRLSSSTEQSTSSRLIRKHKRRRRKQRLRQADRASSFSSITDSTMSLNIVTVTLNMERHHFLGISIVGQSNDRGDGGIYIGSIMKGGAVAADGRIEPGDMLLQVNDVNFENMSNDDAVRVLREIVSQTGPISLTVAKCWDPTPRSYFTVPRADPVRPIDPAAWLSHTAALTGALPRYGTSPCSSAVTRTSSSSLTSSVPGAPQLEEAPLTVKSDMSAVVRVMQLPDSGLEIRDRMWLKITIANAVIGADVVDWLYTHVEGFKERREARKYASSLLKHGFLRHTVNKITFSEQCYYVFGDLCSNLATLNLNSGSSGTSDQDTLAPLPHPAAPWPLGQGYPYQYPGPPPCFPPAYQDPGFSYGSGSTGSQQSEGSKSSGSTRSSRRAPGREKERRAAGAGGSGSESDHTAPSGVGSSWRERPAGQLSRGSSPRSQASATAPGLPPPHPTTKAYTVVGGPPGGPPVRELAAVPPELTGSRQSFQKAMGNPCEFFVDIM
B4: Nkd1-BirA* [murine] / VANGL2 [human (endogenous in Flp-In-T-REx-293)] (parent)
chain 1: B1 chain 1
chain 2: MDTESQYSGYSYKSGHSRSSRKHRDRRDRHRSKSRDGGRGDKSVTIQAPGEPLLDNESTRGDERDDNWGETTTVVTGTSEHSISHDDLTRIAKDMEDSVPLDCSRHLGVAAGATLALLSFLTPLAFLLLPPLLWREELEPCGTACEGLFISVAFKLLILLLGSWALFFRRPKASLPRVFVLRALLMVLVFLLVVSYWLFYGVRILDARERSYQGVVQFAVSLVDALLFVHYLAVVLLELRQLQPQFTLKVVRSTDGASRFYNVGHLSIQRVAVWILEKYYHDFPVYNPALLNLPKSVLAKKVSGFKVYSLGEENSTNNSTGQSRAVIAAAARRRDNSHNEYYYEEAEHERRVRKRRARLVVAVEEAFTHIKRLQEEEQKNPREVMDPREAAQAIFASMARAMQKYLRTTKQQPYHTMESILQHLEFCITHDMTPKAFLERYLAAGPTIQYHKERWLAKQWTLVSEEPVTNGLKDGIVFLLKRQDFSLVVSTKKVPFFKLSEEFVDPKSHKFVMRLQSETSV
B5: Nkd1-BirA* [murine] / NBR1 [human (endogenous in Flp-In-T-REx-293)] (parent)
chain 1: B1 chain 1
chain 2: MEPQVTLNVTFKNEIQSFLVSDPENTTWADIEAMVKVSFDLNTIQIKYLDEENEEVSINSQGEYEEALKMAVKQGNQLQMQVHEGHHVVDEAPPPVVGAKRLAARAGKKPLAHYSSLVRVLGSDMKTPEDPAVQSFPLVPCDTDQPQDKPPDWFTSYLETFREQVVNETVEKLEQKLHEKLVLQNPSLGSCPSEVSMPTSEETLFLPENQFSWHIACNNCQRRIVGVRYQCSLCPSYNICEDCEAGPYGHDTNHVLLKLRRPVVGSSEPFCHSKYSTPRLPAALEQVRLQKQVDKNFLKAEKQRLRAEKKQRKAEVKELKKQLKLHRKIHLWNSIHGLQSPKSPLGRPESLLQSNTLMLPLQPCTSVMPMLSAAFVDENLPDGTHLQPGTKFIKHWRMKNTGNVKWSADTKLKFMWGNLTLASTEKKDVLVPCLKAGHVGVVSVEFIAPALEGTYTSHWRLSHKGQQFGPRVWCSIIVDPFPSEESPDNIEKGMISSSKTDDLTCQQEETFLLAKEERQLGEVTEQTEGTAACIPQKAKNVASERELYIPSVDLLTAQDLLSFELLDINIVQELERVPHNTPVDVTPCMSPLPHDSPLIEKPGLGQIEEENEGAGFKALPDSMVSVKRKAENIASVEEAEEDLSGTQFVCETVIRSLTLDAAPDHNPPCRQKSLQMTFALPEGPLGNEKEEIIHIAEEEAVMEEEEDEEDEEEEDELKDEVQSQSSASSEDYIIILPECFDTSRPLGDSMYSSALSQPGLERGAEGKPGVEAGQEPAEAGERLPGGENQPQEHSISDILTTSQTLETVPLIPEVVELPPSLPRSSPCVHHHGSPGVDLPVTIPEVSSVPDQIRGEPRGSSGLVNSRQKSYDHSRHHHGSSIAGGLVKGALSVAASAYKALFAGPPVTAQPIISEDQTAALMAHLFEMGFCDRQLNLRLLKKHNYNILQVVTELLQLNNNDWYSQRY
B6: Nkd1-BirA* [murine] / VANGL1 [human (endogenous in Flp-In-T-REx-293)] (parent)
chain 1: B1 chain 1
chain 2: MDTESTYSGYSYYSSHSKKSHRQGERTRERHKSPRNKDGRGSEKSVTIQPPTGEPLLGNDSTRTEEVQDDNWGETTTAITGTSEHSISQEDIARISKDMEDSVGLDCKRYLGLTVASFLGLLVFLTPIAFILLPPILWRDELEPCGTICEGLFISMAFKLLILLIGTWALFFRKRRADMPRVFVFRALLLVLIFLFVVSYWLFYGVRILDSRDRNYQGIVQYAVSLVDALLFIHYLAIVLLELRQLQPMFTLQVVRSTDGESRFYSLGHLSIQRAALVVLENYYKDFTIYNPNLLTASKFRAAKHMAGLKVYNVDGPSNNATGQSRAMIAAAARRRDSSHNELYYEEAEHERRVKKRKARLVVAVEEAFIHIQRLQAEEQQKAPGEVMDPREAAQAIFPSMARALQKYLRITRQQNYHSMESILQHLAFCITNGMTPKAFLERYLSAGPTLQYDKDRWLSTQWRLVSDEAVTNGLRDGIVFVLKCLDFSLVVNVKKIPFIILSEEFIDPKSHKFVLRLQSETSV

The variants in the first assay derive from B1. In words: BioID proximity labeling (mass spectrometry). Particulars: with DVL2 (endogenous) [human (endogenous in Flp-In-T-REx-293)]; +Wnt3a.
As to chain 1 G2A, the response (unweighted spectral counts) is 303.

In the next assay the parent is B2. Kind of assay: BioID proximity labeling (mass spectrometry). Particulars: with DVL3 [human (endogenous in Flp-In-T-REx-293)]; +Wnt3a.
On to chain 1 G2A, for which the response (unweighted spectral counts) was 240.

In a further assay the parent is B3. Kind of assay: BioID proximity labeling (mass spectrometry). To be noted: with DVL1 [human (endogenous in Flp-In-T-REx-293)]; +Wnt3a.
chain 1 G2A: the response (unweighted spectral counts) came out at 127.

Another assay covers variants of B4. Kind of assay: BioID proximity labeling (mass spectrometry). To be noted: with VANGL2 [human (endogenous in Flp-In-T-REx-293)]; +Wnt3a.
For the variant chain 1 G2A, the response (unweighted spectral counts) is 3.

Variants of B5 are the subject of a further assay. In words: BioID proximity labeling (mass spectrometry). Particulars: with NBR1 [human (endogenous in Flp-In-T-REx-293)]; +Wnt3a.
Consider chain 1 G2A, for which the response (unweighted spectral counts) turned out to be 24.

The variants in the next assay derive from B6. Kind of assay: BioID proximity labeling (mass spectrometry). Particulars: with VANGL1 [human (endogenous in Flp-In-T-REx-293)]; +Wnt3a.
Regarding chain 1 G2A, the response (unweighted spectral counts) amounted to 7.

The record behind these values is article PMC7581431.
